Measurements published in the Human Domainome abundance scans (Beltran et al. 2025).
± gives the uncertainty stated by the source.

B1: Unconventional myosin-Ie, residues 1051 to 1108; numbered along this chain, Q12965 (parent)
chain: PQVPQCKALYAYDAQDTDELSFNANDIIDIIKEDPSGWWTGRLRGKQGLFPNNYVTKI

Variants of: B1
Assay: abundance fitness (aPCA) (normalised: wild type 0, dead -1); higher = more abundant; growth selection in yeast, the domain comes from the species named
Details: Homo sapiens

Variant | abundance fitness
PQVPQCKALYAYDAIDTDELSFNANDIIDIIKEDPSGWWTGRLRGKQGLFPNNYVTKI [Q15I] | -0.172 ± 0.079
PQVPQCKALYAYDALDTDELSFNANDIIDIIKEDPSGWWTGRLRGKQGLFPNNYVTKI [Q15L] | -0.173 ± 0.04
PQVPQCKALYAYDAQDTDELSFNANDIIDIIKEDPSGWWTGRLRGKIGLFPNNYVTKI [Q47I] | -0.216 ± 0.12
PQVPQCKALYAYDAQDTDELSFNANDKIDIIKEDPSGWWTGRLRGKQGLFPNNYVTKI [I27K] | -0.228 ± 0.042
PQVPQCKALYAYDAQDTDELSFNANDSIDIIKEDPSGWWTGRLRGKQGLFPNNYVTKI [I27S] | -0.655 ± 0.087
PQVPQCKALYAYDAQDTDELSFSANDIIDIIKEDPSGWWTGRLRGKQGLFPNNYVTKI [N23S] | 0.004 ± 0.027
PQVPQCKALYAYDAQDTDELSFYANDIIDIIKEDPSGWWTGRLRGKQGLFPNNYVTKI [N23Y] | -0.155 ± 0.033
PQVPQCKALYAYDAQDTDELSFNANDIIDIIKEDPSGWWTGRLRGKQALFPNNYVTKI [G48A] | -0.171 ± 0.093
PQVPQCKALYAYDAQDTDELSFNANDIIDIIKEDPSGWWTGRLRGKQWLFPNNYVTKI [G48W] | -0.609 ± 0.49
PQVPQCKALYAYDAQDTDELSFNANDIIDIIKEDPSGWWTGRLRGKQVLFPNNYVTKI [G48V] | -0.756 ± 0.22
PQVPQCKALYAYDAQDTDELSFNANDIIDIIKEDPSGWWTGRLRGKQDLFPNNYVTKI [G48D] | -0.885 ± 0.27
PQVPQCKALYAYDAQDTDELSFNANDIIDIIKEDPSGWWTGRLRGKQFLFPNNYVTKI [G48F] | -0.598 ± 0.46
PQVPQCKAEYAYDAQDTDELSFNANDIIDIIKEDPSGWWTGRLRGKQGLFPNNYVTKI [L9E] | -0.149 ± 0.059
PQVPQCKATYAYDAQDTDELSFNANDIIDIIKEDPSGWWTGRLRGKQGLFPNNYVTKI [L9T] | -0.491 ± 0.05
PQVPQCKALYAYDAQDTDELSFNANDIIDIIYEDPSGWWTGRLRGKQGLFPNNYVTKI [K32Y] | -0.105 ± 0.082
PQVPQCKALYAYDAQDTDELSFNANDIIDIITEDPSGWWTGRLRGKQGLFPNNYVTKI [K32T] | -0.173 ± 0.074
PQVPQCKALYAYDAQDTDELSFNANDIIDIIAEDPSGWWTGRLRGKQGLFPNNYVTKI [K32A] | -0.056 ± 0.04
PQVPQCKALYAYDAQDTDELSFNANDIIDIIGEDPSGWWTGRLRGKQGLFPNNYVTKI [K32G] | -0.097 ± 0.029
PQVPQGKALYAYDAQDTDELSFNANDIIDIIKEDPSGWWTGRLRGKQGLFPNNYVTKI [C6G] | 0 ± 0.041
PQVPQCKALYAYDAQDTDELSFNAIDIIDIIKEDPSGWWTGRLRGKQGLFPNNYVTKI [N25I] | -0.833 ± 0.075
PQVPQCKALYAYDAQDTDELSFNAKDIIDIIKEDPSGWWTGRLRGKQGLFPNNYVTKI [N25K] | -0.198 ± 0.064
PQVPQCKALYAYDAQDTDELSFNAFDIIDIIKEDPSGWWTGRLRGKQGLFPNNYVTKI [N25F] | -0.302 ± 0.063
PQVPQCKALYAYDAQDTDELSFNAVDIIDIIKEDPSGWWTGRLRGKQGLFPNNYVTKI [N25V] | -0.753 ± 0.073

Variant | abundance fitness
PQVPQCKALYAFDAQDTDELSFNANDIIDIIKEDPSGWWTGRLRGKQGLFPNNYVTKI [Y12F] | -0.377 ± 0.13
PQVPQCKALYALDAQDTDELSFNANDIIDIIKEDPSGWWTGRLRGKQGLFPNNYVTKI [Y12L] | -0.892 ± 0.08
PQVPQCKALYAYDAQDTDELSFNRNDIIDIIKEDPSGWWTGRLRGKQGLFPNNYVTKI [A24R] | -0.068 ± 0.044
PQVPQCKALYAYDAQDTDELSFNANDITDIIKEDPSGWWTGRLRGKQGLFPNNYVTKI [I28T] | -0.386 ± 0.29
PQVPQCKALWAYDAQDTDELSFNANDIIDIIKEDPSGWWTGRLRGKQGLFPNNYVTKI [Y10W] | -0.092 ± 0.065
PQVPQCKALPAYDAQDTDELSFNANDIIDIIKEDPSGWWTGRLRGKQGLFPNNYVTKI [Y10P] | -0.821 ± 0.2
PQVPQCKALHAYDAQDTDELSFNANDIIDIIKEDPSGWWTGRLRGKQGLFPNNYVTKI [Y10H] | -0.135 ± 0.072
PQVPQCKALYAYDAQDTDELSFNANDIIDIIKEDPSGWWTGRLNGKQGLFPNNYVTKI [R44N] | 0.068 ± 0.088
PQVPQCKALYAYDAQDTDELSFNANDIIDIIKEDPSGWWTGRLRGKQGIFPNNYVTKI [L49I] | -0.219 ± 0.077
PQVPQCKALYAYDAQDTDELHFNANDIIDIIKEDPSGWWTGRLRGKQGLFPNNYVTKI [S21H] | -0.931 ± 0.45
PQVPQCKALYAYDAQDTDELSFNANDIIDIIKEDPSGWWTGRLRGKQGLFPNNYVTTI [K57T] | -0.365 ± 0.1
PQVPQCKALYAYDAQDTDELSFNANDIIDIIKEDPSGWWGGRLRGKQGLFPNNYVTKI [T40G] | -0.647 ± 0.086
PQVPQCKALYAYDAQDTDELSFNANDIIDIIKEDPSGWITGRLRGKQGLFPNNYVTKI [W39I] | -0.179 ± 0.061
PQVPQCKALYAYDAQDTDELSFNANDIIDIIKEDPSGWGTGRLRGKQGLFPNNYVTKI [W39G] | -0.453 ± 0.039
PQVPQCKALYAYDAQDTDELSFNANDIIDIIKEDPSGWWTGRLRGKQGLFPNNYVYKI [T56Y] | -0.197 ± 0.34
PQVPQCKALYAYDAQDTDELSFNANDIIDIIKEDPSGWWTGRLRGKQGLFPNNYVVKI [T56V] | -0.074 ± 0.034
PQVPQCQALYAYDAQDTDELSFNANDIIDIIKEDPSGWWTGRLRGKQGLFPNNYVTKI [K7Q] | -0.287 ± 0.092
PQVPQCKALYAYDAQDTDELSFNANDIIPIIKEDPSGWWTGRLRGKQGLFPNNYVTKI [D29P] | -1.03 ± 0.41
PQVPQCKALYAYDAQDTDELSFNANDIIRIIKEDPSGWWTGRLRGKQGLFPNNYVTKI [D29R] | -0.387 ± 0.032
PQVPQCKALYAYDAQDTDELSFNANDIIIIIKEDPSGWWTGRLRGKQGLFPNNYVTKI [D29I] | -0.345 ± 0.15
PQVPQCKALYAYDAQDTDELSFNANDIIFIIKEDPSGWWTGRLRGKQGLFPNNYVTKI [D29F] | -0.408 ± 0.062
PQVPQCKALYAYDAQDTDELSFNANDIIVIIKEDPSGWWTGRLRGKQGLFPNNYVTKI [D29V] | -0.303 ± 0.053
